Assay results as given in US20250313611A1 (VIB VZW, published 2025).
Several values for one entry are separate records, joined by “and”; a condition that tells them apart may be missing. Equal values may be shown once. Read-outs that look alike come from different tables or passages of the source.

Tests used:
[1] = molecular target: SARS-COV-2 Omicron BQ.1.1 spike (pCG1, del18) (SARS-CoV-2 Omicron BQ.1.1, UniProt P0DTC2 14-1255); experiment: cell-based or functional assay
[2] = molecular target: SARS-COV-2 Omicron BA.2 spike (pCG1, del18) (SARS-CoV-2 Omicron BA.2, UniProt P0DTC2 14-1255); experiment: cell-based or functional assay
[3] = molecular target: T1, SARS-COV-2 spike (614G-del18) (SARS-CoV-2, UniProt P0DTC2 14-1255); experiment: cell-based or functional assay
[4] = molecular target: SARS-COV-2 Omicron BA.4.6 spike (pCG1, del18) (SARS-CoV-2 Omicron BA.4.6, UniProt P0DTC2 14-1255); experiment: cell-based or functional assay
[5] = molecular target: SARS-COV-2 Omicron BA.2.75 spike (pCG1, del18) (SARS-CoV-2 Omicron BA.2.75, UniProt P0DTC2 14-1255); experiment: cell-based or functional assay
[6] = molecular target: SARS-COV-2 Omicron BA.1 spike (pCG1, del18) (SARS-CoV-2 Omicron BA.1, UniProt P0DTC2 14-1255); experiment: cell-based or functional assay
[7] = molecular target: SARS-COV-2 Omicron XBB spike (pCG1, del18) (SARS-CoV-2 Omicron XBB, UniProt P0DTC2 14-1255); experiment: cell-based or functional assay
[8] = molecular target: T1, SARS-COV-2 spike (614G-del18)
[9] = molecular target: SARS-COV-2 spike protein (Wuhan) expressed on transfected cells (SARS-CoV-2 (Wuhan), UniProt P0DTC2 14-1273)
[10] = molecular target: T1, SARS-COV-2 spike (614G-del18); remark: listed apart in the source
[11] = molecular target: T1, SARS-COV-2 spike (614G-del18); experiment: flow cytometry, transfected HEK cells, MFI GFP+/GFP- cells [1/3]
[12] = molecular target: T1, SARS-COV-2 spike (614G-del18); experiment: flow cytometry, transfected HEK cells, MFI GFP+/GFP- cells [3/3]
[13] = molecular target: T1, SARS-COV-2 spike (614G-del18); experiment: flow cytometry, transfected HEK cells, MFI GFP+/GFP- cells [2/3]

B1: R3_DC23-Fc(YTE) (Fc fusion)
chain: DVQLVESGGGLVQPGGSLRLSCAVSGRIFSTYTMGWFRQAPGKEREFVAAVRWGAGTIYYADSVKGRFTISRDNAKNTVYLQMNSLRPEDTAVYYCGAAYVSKANYGSLWYQDSRRYDYWGQGTLVTVSSGGGGSGGGGSDKTHTCPPCPAPELLGGPSVFLFPPKPKDTLYITREPEVTCVVVDVSHEDPEVKFNWYVDGVEVHNAKTKPREEQYNSTYRVVSVLTVLHQDWLNGKEYKCKVSNKALPAPIEKTISKAKGQPREPQVYTLPPSRDELTKNQVSLTCLVKGFYPSDIAVEWESNGQPENNYKTTPPVLDSDGSFFLYSKLTVDKSRWQQGNVFSCSVMHEALHNHYTQKSLSLSPG
Q: Which “IC50, neutralisation of VSV pseudotyped with spike” value [1] does the source give for B1 here?
A: ~1 ng/mL

Q: What about the “EC50, neutralisation of VSV pseudotyped with spike” value (from here on “EC50, neutralisation”) [2] of the same binder?
A: 0.35 ng/mL

Q: And the “IC50, neutralisation of VSV pseudotyped with spike” value [2]?
A: ~1 ng/mL

Q: What about the “EC50, neutralisation” value [3] of the same binder?
A: 1 ng/mL

Q: What about the “IC50, neutralisation of VSV pseudotyped with spike” value [4] of the same binder?
A: ~1 ng/mL

Q: And the “IC50, neutralisation of VSV pseudotyped with spike” value [5]?
A: ~1 ng/mL

Q: And the “EC50, neutralisation” value [6]?
A: 1 ng/mL

Q: And the “IC50, neutralisation of VSV pseudotyped with spike” value [6]?
A: ~1 ng/mL

Q: And the “IC50, neutralisation of VSV pseudotyped with spike” value [7]?
A: ~1 ng/mL

Q: What about the “EC50 (read off the curve)” value [8] of the same binder?
A: ~0.1 µg/mL

B2: VHH R3_DC23 (VHH)
VHH: QVQLQESGGGLVQAGDSLTLSCAVSGRIFSTYTMGWFRQAPGKEREFVAAVRWGAGTIYYADSMKGRFTISRDSAKNTVDLQMNSTKPEDTAVYYCGAAYVSKANYGSLWYQDSRRYDYWGQGTQVTVSS
Q: For B2, which “IC50, neutralisation of VSV pseudotyped with spike, Vero E6 cells” value [3] is on record?
A: < 1 ng/mL

Q: And the “IC50, neutralisation of VSV spike pseudotypes” value [3]?
A: 1.2 ng/ml and 80 µM and ~1 ng/ml

Q: And the “EC50 (read off the curve)” value [9]?
A: ~0.01 µg/mL

Q: What about the “EC50 (read off the curve)” value [10] of the same binder?
A: ~10 ng/mL

B3: VHH R4_DC6 (VHH)
VHH: QVQLQESGGGLVQAGDSLRLSCAASGRILSTFTMGWFRQAPGKEREFVAAMRWNGGTKNYADSVKGRFTISRDNANSVVYLQMNSTKPEDTAVYYCAAAYVSKANYGSLWYRTPSLYDYWGQGTQVTVSS
Q: B3 was tested. Which “EC50 (read off the curve)” value [10] did it give?
A: ~2 ng/mL

B4: VHH R3_C4 (VHH)
VHH: QVQLQESGGGLVQAGDSLRLSCAVSGRPFSTYTMGWFRQAPGKEREFVAAMRWSGGTIYYADSVKGRFTISRDNDKNTVNLEMNSLKPEDTAVYYCAAAYVSKANYGSLWYRASGLYDYWGQGTQVTVSS
Q: Does B4 bind [11]?
A: binds

B5: VHH R4_DC16 (VHH)
VHH: QVQLQESGGGLVQAGDSLRLSCAVSGRPFSTYTMGWFRQAPGKEREFVAAMRWSGGTIYYADSVKGRFTISRDNAQNTVNLQMNSLKPEDTAVYYCAAAYVSKANYGSSWYRNSGLYDYWGQGTQVTVSS
Q: Does B5 bind [12]?
A: binds

B6: VHH R3_DC9 (VHH)
VHH: QVQLQESGGGLVQTGDSLRLSCAVSGRPFSTYTMGWFRQAPGKEREFVASMRWSGGTMYYSDSVKGRFTISRDNDKNTVNLQMNSLKPEDTAVYYCAAAYVSKANYGSLWYRNSGLYDYWGQGTQVTVSS
Q: Does B6 bind [11]?
A: binds

B7: VHH R3_DC2 (VHH)
VHH: QVQLQESGGGLVQTGDSLRLSCAVSGRPFSTYTMGWFRQAPGKEREFVASMRWSGGTKYYSDSVKGRFSISRDNDQNTVNLQMNSLKPEDTAVYYCAAAYVSKANYGSLWYRNSGLYDYWGQGTQVTVSS
Q: Does B7 bind [11]?
A: binds

B8: VHH R4_DC13 (VHH)
VHH: QVQLQESGGGLVQTGDSLRLSCAVSGRPFSTYTMGWFRQAPGKEREFVASMRWSGGTVYYSDSVKGRFTISRDNDKNTVNLQMNNLKPEDTAVYYCAAAYVSKANYGSFWYRNSDLYDYWGQGTQVTVSS
Q: Does B8 bind [13]?
A: binds

B9: VHH R3_DC20 (VHH)
VHH: QVQLQESGGGLVQAGDSLRLSCAVSGRPFSTYTMGWFRQAPGKEREFVAAMRWSGGTIYYADSVKGRFTISRDNAQNTVNLQMNSLEPEDTAVYYCAAAYVSKANYGSLWYRNSGLYDYWGQGTQVTVSS
Q: Does B9 bind [11]?
A: binds

B10: VHH R4_DC9 (VHH)
VHH: QVQLQESGGGLVQAGDSLRLSCAASGRIFSTYTMGWFRQAPGMEREFVAAIRWSGSTVYYADSVKGRFTISRDNAKNTVYLQMNSLKPEDTAVYYCAAARVSKANYGTLWYRASGLYDYWGQGTQVTVSS
Q: B10 was tested. Which “IC50, neutralisation of VSV pseudotyped with spike, Vero E6 cells” value [3] did it give?
A: ~100 ng/mL

Q: What about the “IC50, neutralisation of VSV spike pseudotypes” value [3] of the same binder?
A: 68.9 ng/ml and 4680 µM

B11: VHH R4_DC20 (VHH)
VHH: QVQLQESGGGLVQTGDSLRLSCAVSGRPFSTYTMGWFRQAPGKEREFVASMRWSGGTMNYADSVKGRFTISRDNDQNTVNLQMNSLKPEDTAVYYCAAAYVSKANYGSLWYRNSGLYDYWGQGTQVTVSS
Q: Does B11 bind [12]?
A: binds
